Data on nine molecules can be found in US20190359687A1.

In assay [1] the target is human glycophorin A on human red blood cells or red blood cell membranes (human) (UniProt P02724). As to the kind of experiment: scFv on intact human RBC, unbound scFv by ELISA; 20 min after 200-fold dilution. (In general: An ELISA detects its analyte on a solid surface through an enzyme-linked reagent.)
The target is the same in assay [2]. As to the kind of experiment: scFv 7 ug/ml on intact human RBC, unbound scFv by ELISA; pre-dilution.
Assay [3] has the same target. Nature of the assay: scFv on intact human RBC, unbound scFv by ELISA; 5 min after 200-fold dilution.
For assay [4] the target is unchanged. Nature of the assay: scFv on intact human RBC, unbound scFv by ELISA; 60 min after 200-fold dilution.
Assay [5] shares this target. As to the kind of experiment: scFv on intact human RBC, unbound scFv by ELISA; 0 min after 200-fold dilution.
For assay [6] the target is unchanged. As to the kind of experiment: scFv on intact human RBC, unbound scFv by ELISA; 120 min after 200-fold dilution.
Assay [7] addresses purified human glycophorin A protein (Sigma, cat # G5017) (human) (UniProt P02724). Nature of the assay: ELISA, native hGPA.
The target in assay [8] is human glycophorin A on human red blood cells or red blood cell membranes (human) (UniProt P02724). As to the kind of experiment: ELISA, Fab on coated human RBC membranes.
For assay [9], the target named is recombinant human GPA ectodomain (human) (UniProt P02724). Nature of the assay: ELISA, rec hGPA ectodomain.
For assay [10], the target named is T1, GP5-15 alanine scanning peptide (human).
T1 sequence (peptide, N-terminal biotin): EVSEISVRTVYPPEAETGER
Nature of the assay: alanine scanning peptide ELISA.

Assay [11] addresses T2, GP5-12 alanine scanning peptide (human).
T2 sequence (peptide, N-terminal biotin): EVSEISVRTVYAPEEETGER
As to the kind of experiment: alanine scanning peptide ELISA.

The target of assay [12] is T3, GP5-10 alanine scanning peptide (human).
T3 sequence (peptide, N-terminal biotin): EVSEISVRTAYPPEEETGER
As to the kind of experiment: alanine scanning peptide ELISA.

B1: TPP-5906 parental scFv (humanized and germlined 6C12) (scFv)
scFv: DIQLTQSPSFLSASVGDRVTITCRASSSVSYIYWFQQKPGKAPKLLIYATSTLQSGVPSRFSGSGSGTEYTLTISSLQPEDFATYYCHQRNSFPYTFGQGTKLEIKGGGGSGGGGSGGGGSGGGGSEVQLVQSGAEVKKPGASVKVSCKASGYTFTTYTIHWVRQAPGQGLEWMGYINPSSGYTRYNPKFKGRVTMTRDKSTSTAYMELRSLRSDDTAVYYCQTGTRDYWGQGTTVTVSS
For B1, the percentage of input scFv antibody bound is 0% in assay [1]; 100% in assay [2]; 16% in assay [3]; 3% in [4]; 90% in [5]; 0% in assay [6].

B2: TPP-5321 (Fab, V domains shown)
VH: EVQLVQSGAEVKKPGASVKVSCKASGYTFTTYTIHWVRQAPGQGLEWIGIINPSSDYTRYNPKFKDRVTLTTDKSTSTAYMELRSLRSDDTAVYYCQTGTRDYWGQGTTVTVSS
VL: DIQLTQSPSFLSASVGDRVTITCSAASSVSYIYWFQQKPGKAPKLLIYSTSTLPSGVPSRFSGSGSGTEYTLTISSLQPEDFATYYCHQRNSFPFTFGQGTKLEIKR
Regarding B2, the binding by ELISA relative to parental in assay [7] was determined as 0.06.

B3: TPP-5336 (Fab, V domains shown)
VH: EVQLVQSGAEVKKPGASVKVSCKASGYTFTTYTIHWVRQAPGQGLEWIGYINPSSDYTRYNPKFKDRVTLTTDKSTSTAYMELRSLRSDDTAVYYCQRGTRDYWGQGTTVTVSS
VL: DIQLTQSPSFLSASVGDRVTITCSAASSVSYIYWFQQKPGKAPKLLIYSTSTLPSGVPSRFSGSGSGTEYTLTISSLQPEDFATYYCHQRNSFPFTFGQGTKLEIKR
In the case of B3, the binding by ELISA relative to parental in assay [7] was determined as 0.06.

B4: TPP-5339, Hu6C12-24 Fab variant VH: (E1Q, I48M, L70M, T72R, K74T, R84S, D89E, Q97A, T98R) (Fab, V domains shown)
VH: QVQLVQSGAEVKKPGASVKVSCKASGYTFTTYTIHWVRQAPGQGLEWMGYINPSSDYTRYNPKFKDRVTMTRDTSTSTAYMELSSLRSEDTAVYYCARGTRDYWGQGTTVTVSS
VL: DIQLTQSPSFLSASVGDRVTITCSAASSVSYIYWFQQKPGKAPKLLIYSTSTLPSGVPSRFSGSGSGTEYTLTISSLQPEDFATYYCHQRNSFPFTFGQGTKLEIKR
In the case of B4, the binding in ELISA relative to parental Fab (relative to parental Fab) in assay [8] was determined as 0.3.

B5: TPP-5349 (Fab, V domains shown)
VH: EVQLVQSGAEVKKPGASVKVSCKASGYTFTTYTIHWVRQAPGQGLEWIGYINPSSDYTRYNPKFKDRVTLTTDKSTSTAYMELRSLRSDDTAVYYCQTGTRDYWGQGTTVTVSS
VL: DIQLTQSPSFLSASVGDRVTITCSAASSVSYIYWFQQKPGKAPKLLIYSASTLPSGVPSRFSGSGSGTEYTLTISSLQPEDFATYYCHQRNSFPFTFGQGTKLEIKR
Turning to B5, the binding by ELISA relative to parental in [9] is 0.09.

B6: TPP-5325 (Fab, V domains shown)
VH: EVQLVQSGAEVKKPGASVKVSCKASGYTFTTYTIHWVRQAPGQGLEWIGYINPSSDYTSYNPKFKDRVTLTTDKSTSTAYMELRSLRSDDTAVYYCQTGTRDYWGQGTTVTVSS
VL: DIQLTQSPSFLSASVGDRVTITCSAASSVSYIYWFQQKPGKAPKLLIYSTSTLPSGVPSRFSGSGSGTEYTLTISSLQPEDFATYYCHQRNSFPFTFGQGTKLEIKR
On to B6, for which the binding by ELISA relative to parental in assay [7] stood at 0.07.

B7: TPP-5353 (Fab, V domains shown)
VH: EVQLVQSGAEVKKPGASVKVSCKASGYTFTTYTIHWVRQAPGQGLEWIGYINPSSDYTRYNPKFKDRVTLTTDKSTSTAYMELRSLRSDDTAVYYCQTGTRDYWGQGTTVTVSS
VL: DIQLTQSPSFLSASVGDRVTITCSAASSVSYIYWFQQKPGKAPKLLIYSTSTLPSGVPSRFSGSGSGTEYTLTISSLQPEDFATYYCHQLNSFPFTFGQGTKLEIKR
As for B7, the binding by ELISA relative to parental in assay [7] is 0.04.

B8: TPP-5906 Fab (Fab, V domains shown)
VH: EVQLVQSGAEVKKPGASVKVSCKASGYTFTTYTIHWVRQAPGQGLEWMGYINPSSGYTRYNPKFKGRVTMTRDKSTSTAYMELRSLRSDDTAVYYCQTGTRDYWGQGTTVTVSS
VL: DIQLTQSPSFLSASVGDRVTITCRASSSVSYIYWFQQKPGKAPKLLIYATSTLQSGVPSRFSGSGSGTEYTLTISSLQPEDFATYYCHQRNSFPYTFGQGTKLEIKR
Regarding B8, the percent reduction of binding in assay [10], in [11] and in assay [12] was more than 95% throughout.

B9: TPP-5346 (Fab, V domains shown)
VH: EVQLVQSGAEVKKPGASVKVSCKASGYTFTTYTIHWVRQAPGQGLEWIGYINPSSDYTRYNPKFKDRVTLTTDKSTSTAYMELRSLRSDDTAVYYCQTGTRDYWGQGTTVTVSS
VL: DIQLTQSPSFLSASVGDRVTITCSAASSVSYIAWFQQKPGKAPKLLIYSTSTLPSGVPSRFSGSGSGTEYTLTISSLQPEDFATYYCHQRNSFPFTFGQGTKLEIKR
For B9, the binding by ELISA relative to parental in assay [7] worked out at 0.04.
